{
  "source": "patent US20130101602A1",
  "about": "(ARGOS THERAPEUTICS, published 2013)",
  "binders": {"B1": {"name": "hzACO-1 (humanized ACO-1) (antibody, human IgG4, V domains shown)", "VH": "QVQLVQSGAEVKKPGASVKVSCKASGYTFTNYWMHWVRQAPGQGLEWMGEINPSHGRTIYAQKFQGRVTMTRDTSTSTVYMELSSLRSEDTAVYYCARGGLGPAWFAYWGQGTLVTVSS", "VL": "EIVLTQSPATLSLSPGERATLSCSAGSSVDSSYLYWYQQKPGQAPRLLIYSTSNLASGIPARFSGSGSGTDFTLTISSLEPEDFAVYYCHQWSSYPFTFGQGTKLEIKR", "notes": "also called hzACO-1 IgG4; hzACO-1-IgG4"}, "B2": {"name": "hzACO-1-A93V (antibody, human IgG4, name in Kabat numbering, V domains shown)", "VH": "B1 VH with A97V", "VL": "B1 VL"}, "B3": {"name": "hzACO-1-kabat CDRH2 (antibody, V domains shown)", "VH": "B1 VH with A61N, Q62E, K63N, Q65K, G66S", "VL": "EIVLTQSPATLSLSPGERATLSCSAGSSVDSSYLYWYQQKPGQAPRLLIYSTSNLASGIPARFSGSGSGTDFTLTISSLEPEDFAVYYCHQWSSYPFTFGQGTKLEIK"}, "B4": {"name": "ACO-1 (murine anti-IFN-α antibody, recombinant) (antibody, V domains shown)", "VH": "QVQLQQPGAELVKPGASVKLSCKASGYTFTNYWMHWVKQRPGQGLEWIGEINPSHGRTIYNENFKSKATLTVDKSSITAFMQLSSLTSEDSAVYFCARGGLGPAWFAYWGQGTLVTVSA", "VL": "QIVLTQSPAIMSASPGEKVTLTCSAGSSVDSSYLYWYQQKPGSSPKLWIYSTSNLASGVPARFSGSGSGTSYSLTISSMEAEDAASYFCHQWSSYPFTFGSGTKLEIKR"}},
  "key": {"[1]": {"target": "various IFN-α subtypes (those inhibited in the reporter gene assay of FIG. 5)", "assay": "cell-based or functional assay"}, "[2]": {"target": "T1, recombinant human IFN-α4a (human, UniProt P05014 24-189)", "T1 sequence (P05014 24-189)": "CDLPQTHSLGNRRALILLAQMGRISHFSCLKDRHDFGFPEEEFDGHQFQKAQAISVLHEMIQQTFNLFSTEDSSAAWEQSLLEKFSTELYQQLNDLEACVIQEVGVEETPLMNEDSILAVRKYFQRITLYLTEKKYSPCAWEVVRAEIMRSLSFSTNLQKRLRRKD", "assay": "cell-based or functional assay"}, "recombinant human IFN-αC [3]": {"target": "T2, recombinant human IFN-αC (human, UniProt P01566 24-189)", "T2 sequence (P01566 24-189)": "as the sequence (P05014 24-189) above, with A19G, H26P, G37R, F38I, E40Q, H46N, T132I, K134R counted along it", "assay": "cell-based or functional assay"}, "recombinant human IFN-αG [4]": {"target": "T3, recombinant human IFN-αG (human, UniProt P01569 24-189)", "T3 sequence (P01569 24-189)": "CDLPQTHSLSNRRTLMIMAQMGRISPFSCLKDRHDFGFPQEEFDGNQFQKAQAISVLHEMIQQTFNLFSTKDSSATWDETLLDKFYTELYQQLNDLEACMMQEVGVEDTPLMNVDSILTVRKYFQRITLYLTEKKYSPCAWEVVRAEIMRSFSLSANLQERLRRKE", "assay": "cell-based or functional assay"}, "recombinant human IFN-αC [5]": {"target": "T2, recombinant human IFN-αC", "assay": "cell-based or functional assay", "remark": "listed apart in the source"}, "recombinant human IFN-αF [6]": {"target": "T4, recombinant human IFN-αF (human, UniProt P01568 24-189)", "T4 sequence (P01568 24-189)": "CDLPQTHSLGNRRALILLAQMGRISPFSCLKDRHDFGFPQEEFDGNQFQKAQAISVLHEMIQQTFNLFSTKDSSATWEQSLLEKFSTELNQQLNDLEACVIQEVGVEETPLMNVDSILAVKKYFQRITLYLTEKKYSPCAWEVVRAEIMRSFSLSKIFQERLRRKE", "assay": "cell-based or functional assay"}, "recombinant human IFN-αF [7]": {"target": "T4, recombinant human IFN-αF", "assay": "cell-based or functional assay", "remark": "listed apart in the source"}, "recombinant human IFN-α1": {"target": "T5, recombinant human IFN-α1 (human, UniProt P0DY56 24-189)", "T5 construct": "both come from gene 1; also called hIFN-α1; subtype 1 (Ala114)", "T5 sequence (P0DY56 entry or part of it limits assumed)": "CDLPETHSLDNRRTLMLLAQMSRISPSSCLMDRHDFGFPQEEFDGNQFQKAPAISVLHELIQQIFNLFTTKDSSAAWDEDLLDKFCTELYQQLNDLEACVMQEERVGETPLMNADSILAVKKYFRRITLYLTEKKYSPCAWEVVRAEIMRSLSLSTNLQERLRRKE", "assay": "SPR (Biacore), mAb immobilised, IFN-α injected", "method": "(§1) The purified monoclonal antibodies were immobilized in individual flow cells on a CM5 type sensor chip. Immobilizations were performed using a standard amine coupling procedure, aiming for an immobilization level of 1000 Resonance Units (RU).\n(§2) HBS-EP pH 7.4 (10 mM HEPES, 150 mM NaCl, 3 mM EDTA and 0.005% Polysorbate P20) was used as running buffer, and diluent for the recombinant IFN-α's. Association (injection) was 4 min., followed by a 12 to 30 min. dissociation period. Flow rate was 50 μl/min. Experiments were performed at 25° C. Detection in all flow cells simultaneously. Flow cell #1 contained no immobilized antibody, and was used for subtraction of background and bulk.\n(§3) Data was inspected for mass-transport limitations prior to calculation of the kinetic parameters."}, "recombinant human IFN-αG [8]": {"target": "T3, recombinant human IFN-αG", "assay": "SPR (Biacore), mAb amine-coupled on CM5 chip, IFN-α injected, 1:1 Langmuir fit", "method": "as §1, §2, §3"}, "[9]": {"target": "T6, recombinant human IFN-αH2 (human, UniProt P01570 24-189)", "T6 construct": "also called hIFN-αH2", "T6 sequence (P01570 24-189)": "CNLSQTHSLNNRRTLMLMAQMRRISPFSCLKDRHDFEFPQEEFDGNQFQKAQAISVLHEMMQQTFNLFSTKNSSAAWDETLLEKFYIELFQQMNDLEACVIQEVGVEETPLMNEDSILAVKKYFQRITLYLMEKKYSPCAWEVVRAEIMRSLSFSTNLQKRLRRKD", "assay": "SPR (Biacore), mAb amine-coupled on CM5 chip, IFN-α injected, 1:1 Langmuir fit", "method": "as §1, §2, §3"}, "recombinant human IFN-αI": {"target": "T7, recombinant human IFN-αI (human, UniProt P01571 24-189)", "T7 construct": "also called hIFN-αI", "T7 sequence (P01571 24-189)": "as the sequence (P05014 24-189) above, with H26P, F38L, E40Q, H46N, A51T, D95N, V106M, R161I counted along it", "assay": "SPR (Biacore), mAb amine-coupled on CM5 chip, IFN-α injected, 1:1 Langmuir fit", "method": "as §1, §2, §3"}, "[10]": {"target": "T8, recombinant human IFN-αJ1 (human, UniProt P01567 24-189)", "T8 construct": "also called hIFN-αJ1", "T8 sequence (P01567 24-189 limits assumed)": "as the sequence (P05014 24-189) above, with G10R, H26P, D35E, G37R, A51T, S116F, T132M, L152F, Q159K, R161G counted along it", "assay": "SPR (Biacore), mAb amine-coupled on CM5 chip, IFN-α injected, 1:1 Langmuir fit", "method": "as §1, §2, §3"}, "[11]": {"target": "T9, recombinant human IFN-αWA (human, UniProt P05015 24-189)", "T9 construct": "also called hIFN-αWA", "T9 sequence (P05015 24-189)": "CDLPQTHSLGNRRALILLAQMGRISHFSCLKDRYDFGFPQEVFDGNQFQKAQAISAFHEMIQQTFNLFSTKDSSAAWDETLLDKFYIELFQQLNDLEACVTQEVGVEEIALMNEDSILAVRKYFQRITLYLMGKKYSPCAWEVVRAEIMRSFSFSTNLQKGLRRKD", "assay": "SPR (Biacore), mAb amine-coupled on CM5 chip, IFN-α injected, 1:1 Langmuir fit", "method": "as §1, §2, §3"}, "[12]": {"target": "T1, recombinant human IFN-α4a", "assay": "SPR (Biacore), mAb amine-coupled on CM5 chip, IFN-α injected, 1:1 Langmuir fit", "method": "as §1, §2, §3"}, "recombinant human IFN-αC [13]": {"target": "T2, recombinant human IFN-αC", "assay": "SPR (Biacore), mAb amine-coupled on CM5 chip, IFN-α injected, 1:1 Langmuir fit", "method": "as §1, §2, §3"}, "recombinant human IFN-αK": {"target": "T10, recombinant human IFN-αK (human, UniProt P05013 24-189)", "T10 construct": "also called hIFN-αK", "T10 sequence (P05013 24-189)": "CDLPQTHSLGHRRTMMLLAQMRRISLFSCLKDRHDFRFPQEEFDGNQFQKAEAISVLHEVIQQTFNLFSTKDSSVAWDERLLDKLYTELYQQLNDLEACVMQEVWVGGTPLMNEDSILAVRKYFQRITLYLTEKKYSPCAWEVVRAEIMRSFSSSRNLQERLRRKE", "assay": "SPR (Biacore), mAb amine-coupled on CM5 chip, IFN-α injected, 1:1 Langmuir fit", "method": "as §1, §2, §3"}, "[14]": {"target": "recombinant human IFN-αA (human) (UniProt P01563)", "sequence (P01563 other isoform, or with tags, fused parts or gaps)": "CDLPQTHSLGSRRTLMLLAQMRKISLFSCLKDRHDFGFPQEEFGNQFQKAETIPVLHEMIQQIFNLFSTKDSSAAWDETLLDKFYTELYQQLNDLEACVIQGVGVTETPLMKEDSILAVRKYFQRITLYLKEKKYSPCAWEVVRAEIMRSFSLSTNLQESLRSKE", "assay": "cell-based or functional assay"}, "recombinant human IFN-αG [15]": {"target": "T3, recombinant human IFN-αG", "assay": "cell-based or functional assay", "remark": "listed apart in the source"}, "[16]": {"target": "T8, recombinant human IFN-αJ1", "assay": "cell-based or functional assay"}, "recombinant human IFN-αF [17]": {"target": "T4, recombinant human IFN-αF", "assay": "cell-based or functional assay", "remark": "listed apart in the source"}, "[18]": {"target": "recombinant human IFN-αA (human) (UniProt P01563)", "assay": "SPR (Biacore), KD normalised to hzACO-1"}, "[19]": {"target": "recombinant human IFN-αA (human) (UniProt P01563)", "assay": "SPR (Biacore), mAb amine-coupled on CM5 chip, IFN-α injected, 1:1 Langmuir fit"}},
  "note": "Numbering of substitutions follows the chain as printed. Numbers in names are those of the source.",
  "data": [
    {"binder": "B1", "values": [
      {"measurement": "IC50, reporter gene (Mx promoter-luciferase) assay in 93D7 cells", "setting": "[1]", "result": "0.028 to 0.314", "unit": "µg/mL"},
      {"measurement": "IC50 (read off the curve) (CPE assay)", "setting": "[2]", "result": "~0.06", "unit": "µg/mL"},
      {"measurement": "IC50 (read off the curve) (CPE assay)", "setting": "recombinant human IFN-αC [3]", "result": "~0.008", "unit": "µg/mL"},
      {"measurement": "IC50 (read off the curve) (reporter gene assay)", "setting": "recombinant human IFN-αG [4]", "result": "~0.05", "unit": "µg/mL"},
      {"measurement": "IC50 (read off the curve) (reporter gene assay)", "setting": "recombinant human IFN-αC [5]", "result": "~0.03", "unit": "µg/mL"},
      {"measurement": "IC50 (read off the curve) (reporter gene assay)", "setting": "recombinant human IFN-αF [6]", "result": "~0.3", "unit": "µg/mL"},
      {"measurement": "IC50 (reporter gene assay, Mx promoter-luciferase in 93D7 cells)", "setting": "recombinant human IFN-αF [7]", "result": 0.277, "unit": "µg/mL"},
      {"measurement": "binding result", "setting": "recombinant human IFN-α1", "result": "no binding"},
      {"measurement": "Kd", "setting": "recombinant human IFN-αG [8]", "result": 0.92, "unit": "nM"},
      {"measurement": "Kd", "setting": "[9]", "result": 3.21, "unit": "nM"},
      {"measurement": "Kd", "setting": "recombinant human IFN-αI", "result": 2.81, "unit": "nM"},
      {"measurement": "Kd", "setting": "[10]", "result": 4.81, "unit": "nM"},
      {"measurement": "Kd", "setting": "[11]", "result": 4.1, "unit": "nM"},
      {"measurement": "Kd", "setting": "[12]", "result": 3.45, "unit": "nM"},
      {"measurement": "Kd", "setting": "recombinant human IFN-αC [13]", "result": 1.05, "unit": "nM"},
      {"measurement": "Kd", "setting": "recombinant human IFN-αK", "result": 1.44, "unit": "nM"}
    ]},
    {"binder": "B2", "values": [
      {"measurement": "IC50 (reporter gene assay, Mx promoter-luciferase in 93D7 cells)", "setting": "recombinant human IFN-αF [7]", "result": 0.156, "unit": "µg/mL"}
    ]},
    {"binder": "B3", "values": [
      {"measurement": "IC50 value relative to hzACO-1 (RG assay)", "setting": "[14]", "result": 0.95},
      {"measurement": "IC50 value relative to hzACO-1 (RG assay)", "setting": "recombinant human IFN-αG [15]", "result": 0.78},
      {"measurement": "IC50 value relative to hzACO-1 (RG assay)", "setting": "[16]", "result": 1.15},
      {"measurement": "IC50 value relative to hzACO-1 (RG assay)", "setting": "recombinant human IFN-αF [17]", "result": 0.95},
      {"measurement": "KD mAb/KD hzACO-1", "setting": "[18]", "result": 0.9},
      {"measurement": "koff", "setting": "[19]", "result": 0.000341, "unit": "s⁻¹"},
      {"measurement": "kon", "setting": "[19]", "result": 205000, "unit": "M⁻¹ s⁻¹"}
    ]},
    {"binder": "B4", "values": [
      {"measurement": "IC50 value relative to hzACO-1 (RG assay)", "setting": "recombinant human IFN-αG [15]", "result": 0.56},
      {"measurement": "IC50 value relative to hzACO-1 (RG assay)", "setting": "[16]", "result": 0.58},
      {"measurement": "IC50 value relative to hzACO-1 (RG assay)", "setting": "recombinant human IFN-αF [17]", "result": 0.82}
    ]}
  ]
}
